Laboratory results: the supplement of paper PMC12042874
± gives the uncertainty stated by the source.

Assay: amyloid nucleation score (Sup35N fusion, yeast selection) (log enrichment); library NNK3; higher = more nucleation; inactive = no reads after selection
How it was run: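 Growth for 7 days at 30°C on medium lacking adenine and uracil followed a 24-hour induction with 100 μM copper sulfate of psi-negative yeast expressing peptides of 20 random codons fused to Sup35N. Input and output plasmid inserts were sequenced with Illumina, and sequences with under 100 input reads were excluded. Nucleation score is the DiMSum log enrichment of output over input reads, centred on the mode score of non-aggregating sequences.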

Substance	amyloid nucleation score
SYGLTHMSKAIGDHRVVIAT	inactive
SYILRLSHFITVGLFWAEMQ	inactive
SYLVRCVARNLLCFERVRGS	inactive
SYNCA	inactive
SYNHEKLK	inactive
SYNKEKVSKTFVGCPTRSMV	inactive
SYNVFPIAEDKNHWNTFC	inactive
SYSLPMQKRCCIGIGEAGWN	-0.354 ± 0.82
SYSNDHAFVSRVAGCNIC	1.53 ± 0.1
SYSSIVCLGIDYRQAFWCIR	1.8 ± 0.077
SYSVIMNHMKRWNPGDTSKW	inactive
SYTSFSHSPCTVLMKTWPPK	inactive
SYWPVRSELQSVLLNSCGVR	inactive
SYYPRIRRLGWECSWTPMLQ	inactive
SYYSRIRLLRRVRVSYYYVR	0.801 ± 0.22
SYYTISLRMSFTTYFCLKMS	0.665 ± 0.13
TACVFPLMFTTVPGFFFVVE	inactive
TAFYSRYFWVNLICRRPSFK	inactive
TAPFVYLLWRGKCSKAHSRY	inactive
TARDESSGV	inactive
TAVVKW	inactive
TCAPMTITFSCHNNLFKC	2.65 ± 0.058
TCECCLMMVEFRALCHRWEL	inactive

Substance	amyloid nucleation score
TCLEVYGSDMFRTKIRNHDK	inactive
TCNNMYCWV	2.3 ± 0.075
TCSYNSGKYNFE	inactive
TCTLEFLNY	inactive
TDHAWFWEQS	inactive
TDIAPLAGGITSSDNIVRTK	inactive
TDKRSGVKLNLYFITNTIFA	2.17 ± 0.06
TDSYICGNMLHKRALKSTSM	inactive
TEDHH	inactive
TEESIDVDCVILVTNCHFRC	0.804 ± 0.18
TEQNVSGCEGEGSYGYTRYA	inactive
TETASNSTRYSFL	inactive
TFCSTCGDLWGSDFKCGFRV	inactive
TFCVQYESRFRFQESESLHM	inactive
TFFIIIGYVLASGGALGLCR	inactive
TFFLYVKIRVALNIRVPGVR	inactive
TFFVLGCLINLLGMKWTGWV	inactive
TFGHWAMYVSCWDRVVCGVD	inactive
TFLCSENQAAMWGIRTGSLL	inactive
TFLRQGMNSDISYLVRFGGN	-0.057 ± 0.47
TFLWY	inactive
TFNSLVCQFIKPLHHLFATL	inactive
TFNYYACTPIKFVWYLGTCP	2.54 ± 0.072

Substance	amyloid nucleation score
TFQDGLLRSDWFIMTLFRRP	inactive
TFQRFQLGHIRFRQVFSWIC	-0.627 ± 1.4
TFRLAEQQSEFSDLK	-0.335 ± 0.71
TFSFILRSNLLYENRSVDRA	1.57 ± 0.077
TFSVRLSYLSRNAICDERVL	0.33 ± 0.46
TGCPWIRTVNPVVPWVCEHR	inactive
TGCSSF	inactive
TGKLNNFFNTFRYFYLLADY	inactive
TGLVMNKLHLMCDMYGIISL	inactive
TGPFGINLRGR	inactive
TGTSSKYVGEVLHSLVVWFA	-0.575 ± 1.5
TGVDILIPFFSPSGT	inactive
TGYWRIFSCSCLIVCVRLSV	inactive
THGIMLGFEECLGVYTFMCG	inactive
THGNMCYEWIPKVPTIISVG	inactive
THHRPWWYHSEVGVRCMNEV	0.049 ± 0.96
THLIIHCLCLFERVFITHVA	inactive
THVSSGYRYEEILWWHSRGW	inactive
TIAHYTVP	inactive
TICQADSRSSFQGLDCRRVR	-1.01 ± 2.5
TICYGD	inactive
TIESNCVDDLSIGGAGPNLR	inactive
TIFGCRSSQCSMFVLVFDFY	1.51 ± 0.12

Substance	amyloid nucleation score
TIFRSNDLRQYFWMA	1.63 ± 0.071
TIHIHFVGHDVCNRVVGVHH	1.24 ± 0.18
TIISCFREKIGLSRM	inactive
TKGKLLSKHLGFVRCRVHRS	inactive
TKGLDILDGVCVGCLRCQVD	inactive
TKLCQSLRHAQRGTRTTSFS	inactive
TKLPNYFWGLKGYHLLALLR	inactive
TKWRLTP	inactive
TKYRPCYNIVYSMFED	inactive
TLAPKYFYFFVKDVFGTSYC	1.54 ± 0.093
TLDHEWGFLSEKATVL	inactive
TLDVQGTCH	inactive
TLFVA	inactive
TLGRNCLVQRSCMGRSSECD	inactive
TLISYFEG	inactive
TLLFFCLEQTFNWFIMIQ	inactive
TLLFY	inactive
TLLHDSDVGMQLSGSQRFFS	inactive
TLLLL	inactive
TLMGLESVSVYFSMGFLSVY	inactive
TLNGCR	inactive
TLNRLTKKHCFGNFWLYSAW	inactive
TLSDQFDMISWVSK	inactive

Substance	amyloid nucleation score
TLVPVCGGSAGLVSSRKAAT	inactive
TLWAEYTNLSEKEIDDYIDL	inactive
TLWFQPDFTHVRRWYGLGLR	inactive
TLYKSGGEFHYKGLALKSKC	inactive
TMLWYLDDSSSNIREKSHGM	inactive
TMTRSLYSVVSFKRFNSCLV	inactive
TMWLLCELFVTC	inactive
TMYVCWSMFEAIWDINHNTS	-0.26 ± 0.64
TNLLM	inactive
TNNRKRLYYWFERVTSE	inactive
TNRIMNPVYDILWSGMGQPC	inactive
TNTFQSRNMFVNTALIYSP	inactive
TNTSFSNWRCTPDRGIM	inactive
TNVRIYCSWGVDAG	inactive
TPHLSCNLRYG	inactive
TPLTPSGRLGFLTK	0.7 ± 0.21
TPNARSNPSNRPVSSTRARS	inactive
TPRKVVDNGGLIDFKVYRLL	inactive
TPSVRRGVMGVSPELCAMVG	inactive
TPYQYFFRNCWKMSYRRAKI	inactive
TQGFLNKAGNVLSVIMDRIR	inactive
TQLFGGFPTEGQMMYPPRSS	inactive
TQRRFMYMAFNQYMSQSSSR	inactive

Substance	amyloid nucleation score
TQSFWIARYTQLVCPRLCQN	inactive
TRALT	inactive
TRERWTTVYLNKLFLLCYSD	inactive
TRICMCFEFVNTSY	inactive
TRILVRTGYHLLFLEG	inactive
TRKLIDYLFTVKQVLQSKEE	inactive
TRMEICCKGYKGNVPKFAVY	inactive
TRMSVQLISFAKLTFFSACM	inactive
TRNSYCTFRGGIIFCL	1.25 ± 0.09
TRRGHHCQFLVSGSGIAL	inactive
TRSCDRYRALYSLLFTTGSM	inactive
TRWHDGKRVSWKSTPNMLSV	inactive
TRYGNW	inactive
TSAYGMSSWGFWS	inactive
TSESAIAVRWSVFSPWPLGF	0.643 ± 0.15
TSGHLVLGGYLSNQVKSVFR	0.605 ± 0.24
TSKLVCPNGVMHLRDDRVGC	inactive
TSKREWLMRNYAHCTNFDGR	inactive
TSKRSYVSTGYTNWFTFRI	inactive
TSKVGLACKTIYVERSFWYF	inactive
TSMSGYRTRNPMTVPHHCVV	inactive
TSQQHPASVSKGYMLRDG	inactive
TSQTLESQDLIFSGCHSGWL	inactive

Substance	amyloid nucleation score
TSQYRPERKLRVR	inactive
TSSETNLAYCSAVRGGLRKQ	inactive
TSVLSTGCYTRTVTNVNGSI	inactive
TSVSKFKPVLHYNRTGSHGF	inactive
TTDCIESVRDG	-0.659 ± 1.4
TTFATSCNMWYHRSILHS	inactive
TTLQEDGYRDACGYMASVFW	inactive
TTMWFLWEVSGYCHKCN	inactive
TTQILAL	inactive
TTRKNLKSGLVVSL	inactive
TTRYHF	inactive
TTSLSIGGLIFRLVL	inactive
TTTLDSQSNNMFGAS	inactive
TTTRIAMYWYEYMSGCASHY	inactive
TVDFLSLVCVVIFRGTDWRR	-1.03 ± 1.1
TVDMSKPGYIWFSSDRSRYW	inactive
TVGCHSGPELMFQSWNSRSL	inactive
TVIVCVTFLRGWVSSACGLS	0.045 ± 0.8
TVIWLYIFRSQMPPVNPMRL	inactive
